Reference: patent US20150203577A1 (Chugai, published 2015)
Substitutions are numbered along the chain they refer to. In names and notes the source's numbering stands. Read-outs that look alike come from different tables or passages of the source. One block for each binder: values may come before it.

Tests used:
mouse FcγRIII [1] = target: T1, mouse FcγRIII (mouse, UniProt P08508 31-215); assay: SPR Biacore T200, KD ratio
T1 construct: also called mFcγRIII; mFcgRIII
T1 chain: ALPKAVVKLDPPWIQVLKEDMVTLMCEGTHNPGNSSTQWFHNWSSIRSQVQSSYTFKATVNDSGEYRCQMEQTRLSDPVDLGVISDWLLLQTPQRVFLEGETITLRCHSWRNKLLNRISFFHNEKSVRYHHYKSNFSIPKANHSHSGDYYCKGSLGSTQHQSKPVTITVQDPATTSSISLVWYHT

mouse FcγRII [2] = target: T2, mouse FcγRII (mouse, UniProt P08101 30-210); assay: SPR Biacore T200, KD ratio
T2 construct: also called mFcγRII; mFcgRII
T2 sequence: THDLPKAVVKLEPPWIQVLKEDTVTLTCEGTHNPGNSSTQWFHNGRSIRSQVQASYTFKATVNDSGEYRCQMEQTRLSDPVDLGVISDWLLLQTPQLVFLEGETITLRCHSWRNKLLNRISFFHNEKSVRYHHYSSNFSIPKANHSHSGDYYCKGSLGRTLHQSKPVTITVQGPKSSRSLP

mouse FcγRII [3] = target: T2, mouse FcγRII; assay: SPR Biacore T200, KD ratio; remark: listed apart in the source
mouse FcγRIII [4] = target: T3, mouse FcγRIII (mouse, UniProt P08508 31-215); assay: SPR (Biacore), antibody captured on Protein L, mFcγR as analyte
T3 construct: also called mFcγRIII; mFcgRIII
T3 chain: T1 chain
Protocol: (§1) The antibody of interest was captured onto any of these sensor chips and allowed to interact with mFcγR diluted with a running buffer. The amount bound to the antibody was measured and compared among antibodies. Since the amount of mFcγR bound depends on the amount of the captured antibody, a correction value determined by dividing the amount of mFcγR bound by the amount of each captured antibody was used in the comparison. The antibody captured on the sensor chip was washed off through the reaction of 10 mM glycine-HCl (pH 1.5) to regenerate the sensor chip, which was repetitively used.
(§2) In order to calculate the KD value of each altered antibody for FcγR, kinetic analysis was conducted according to the following method: first, the antibody of interest was captured onto any of these chips and allowed to interact with mFcγR diluted with a running buffer. For the obtained sensorgram, the assay results were globally fit into the 1:1 Langmuir binding model using Biacore Evaluation Software to calculate an association rate constant ka (L/mol/s) and a dissociation rate constant kd (1/s). From these values, the dissociation constant KD (mol/L) was calculated.

[5] = target: T4, mouse FcγRIII extracellular domain, C-terminally His-tagged (mouse, UniProt P08508 31-215); assay: SPR Biacore T200, antibody captured on Protein L
T4 construct: the whole entry is named; also called mFcγRIII; mFcgRIII
T4 chain: T1 chain
Protocol: As for alterations, “X000Z” represents the substitution of amino acid X at EU numbering position 000 by amino acid Z. In this context, X and Z represent the one-letter codes of the amino acid residues.
(§3) Each altered antibody was analyzed for its interaction with each Fcγ receptor prepared above using Biacore T100 (GE Healthcare Japan Corp.), Biacore T200 (GE Healthcare Japan Corp.), Biacore A100, or Biacore 4000. The running buffer used was HBS-EP+ (GE Healthcare Japan Corp.). The assay temperature was set to 25° C. The sensor chips used were chips prepared by immobilizing Protein L (ACTIGEN or BioVision) onto Series S Sensor Chip CM5 (GE Healthcare Japan Corp.) or Series S Sensor Chip CM4 (GE Healthcare Japan Corp.) by the amine coupling method.
as §2

[6] = target: T5, mouse FcγRII extracellular domain, C-terminal His tag (mouse, UniProt P08101 30-210); assay: SPR (Biacore T200); KD of H237-mIgG1/MRAL-k0 / KD of variant
T5 construct: Whole entry named; also called mFcγRII; mFcgRII
T5 sequence: T2 sequence

[7] = target: T6, mouse FcγRIII extracellular domain, C-terminal His tag (mouse, UniProt P08508 31-215); assay: SPR (Biacore T200)
T6 construct: Whole entry named; also called mFcγRIII; mFcgRIII
T6 chain: T1 chain
From the text: (§4) The antibody H chain variable region used was the variable region H237 (SEQ ID NO: 1) of the H chain VH3-IgG1 of the anti-IL-6 receptor antibody Fv4-IgG1 described in WO2009/125825. The antibody L chain commonly used was the L chain MRAL-k0 (SEQ ID NO: 2) of the anti-IL-6 receptor antibody tocilizumab. […] These variants were expressed and purified by the method of Reference Example 1 and evaluated for their binding to mFcγRII and mFcγRIII by the method of Reference Example 2 using Biacore T200.
as §3

[8] = target: T6, mouse FcγRIII extracellular domain, …; assay: SPR (Biacore T200)
[9] = target: T5, mouse FcγRII extracellular domain, …; assay: SPR (Biacore T200); KD of H237-mIgG1/MRAL-k0 / KD of variant; remark: listed apart in the source
[10] = target: T5, mouse FcγRII extracellular domain, …; assay: SPR (Biacore T200)
From the text: as §4, §3

mouse FcγRII [11] = target: T7, mouse FcγRII (mouse, UniProt P08101 30-210); assay: SPR (Biacore), antibody captured on Protein L, mFcγR as analyte
T7 construct: also called mFcγRII; mFcgRII
T7 sequence: T2 sequence
Protocol: as §1, §2

[12] = target: T6, mouse FcγRIII extracellular domain, …; assay: SPR (Biacore T200); KD of H237-mIgG1/MRAL-k0 / KD of variant
mouse FcγRIII [13] = target: T1, mouse FcγRIII; assay: SPR Biacore T200, KD ratio
Protocol: (§5) The antibody L chain commonly used was the L chain MRAL-k0 (SEQ ID NO: 2) of the anti-IL-6 receptor antibody tocilizumab. The antibody H chain constant region used was each of the aforementioned 8 Fc variants prepared by altering human IgG1 hIgG1 (SEQ ID NO: 3) as a template.
as §3, §2

mouse FcγRII [14] = target: T2, mouse FcγRII; assay: SPR Biacore T200, KD ratio; remark: listed apart in the source
Protocol: as §5, §3, §2

B1: H237-MB338/MRAL-k0 (antibody, mouse IgG1, kappa)
heavy: QVQLQESGPGLVKPSETLSLTCAVSGHSISHDHAWSWVRQPPGEGLEWIGFISYSGITNYNPSLQGRVTISRDNSKNTLYLQMNSLRAEDTAVYYCARSLARTTAMDYWGEGTLVTVSSAKTTPPSVYPLAPGSAAQTNSMVTLGCLVKGYFPEPVTVTWNSGSLSSGVHTFPAVLQSDLYTLSSSVTVPSSTWPSETVTCNVAHPASSTKVDKKIVPRDCGCKPCICEDPEVEDVFIFPPKPKDVLTITLTPKVTCVVVDISKDDPEVQFSWFVDDVEVHTAQTQPREEQFNSTFRSVSELPIMHQDWLNGKEFKCRVNSAAFPAPIEKTISKTKGRPKAPQVYTIPPPKEQMAKDKVSLTCMITDFFPEDITVEWQWNGQPAENYKNTQPIMDTDGSYFVYSKLNVQKSNWEAGNTFTCSVLHEGLHNHHTEKSLSHSPGK
light: not shown
notes: copies: 2 + 2
Relative mFcγRIII-binding activity (MB110 = 1) (mouse FcγRIII [1]): 0.64 fold
relative mFcγRIII-binding activity (mIgG1 = 1) (mouse FcγRIII [1]): 2.6 fold
Relative mFcγRII-binding activity (MB110 = 1) (mouse FcγRII [2]): 3.44 fold
relative mFcγRII-binding activity (mIgG1 = 1) (mouse FcγRII [2]): 42.2 fold
mFcγRII-binding activity relative to H237-MB302/MRAL-k0 (before the introduction of V231D) (mouse FcγRII [3]): ~0.8 fold

B2: H237-mIgG1/MRAL-k0 (antibody)
heavy: B1 heavy with E229T, D230V, E234S, D235S
light: not shown
notes: Anti-IL-6 receptor antibody with unaltered mouse IgG1 H chain constant region; copies: 2 + 2
Kd (mouse FcγRIII [4]): 282 nM

B3: H237-MB390/MRAL-k0 (antibody, mouse IgG1, kappa)
heavy: B1 heavy with D230P, P231N
light: not shown
notes: mIgG1 with T230E/V231P/P232N/S238E/S239D; also called template T8; copies: 2 + 2
relative mFcγRII-binding activity (H237-mIgG1/MRAL-k0 = 1) (mouse FcγRII [3]): > 500 fold

B4: H237-mIgG1/MRAL-k0 (antibody)
heavy: B1 heavy with E229T, D230V, E234S, D235S
light: not shown
notes: Anti-IL-6 receptor antibody with the unaltered mouse IgG1 H chain constant region; copies: 2 + 2
Kd [5]: 282 nM

B5: H237-MB610/MRAL-k0 (antibody, mouse IgG1, kappa)
heavy: B1 heavy with E229T, D230V, V233E, E234S, D235E, F237D
light: not shown
notes: copies: 2 + 2
relative mFcγRII-binding activity (mIgG1 = 1) [6]: 0.23 fold
binding result [7]: no binding

B7: H237-MB606/MRAL-k0 (antibody, mouse IgG1, kappa)
heavy: B1 heavy with D230V, E234D, D235S, S263M
light: not shown
notes: copies: 2 + 2
relative mFcγRII-binding activity (mIgG1 = 1) [6]: 0.05 fold
binding result [7]: no binding

B9: H237-MB492/MRAL-k0 (antibody, mouse IgG1, kappa)
heavy: B1 heavy with D230P, P231N, N320D
light: not shown
notes: mouse IgG1 CH variant; copies: 2 + 2
Kd (mouse FcγRIII [4]): 25.8 nM
relative mFcγRIII-binding activity (mIgG1 = 1) (mouse FcγRIII [4]): 10.9 fold
Kd (mouse FcγRII [11]): 0.338 nM
relative mFcγRII-binding activity (mIgG1 = 1) (mouse FcγRII [11]): 622 fold

B11: H237-MB675/MRAL-k0 (antibody)
heavy: B1 heavy with E229I, D230P, P231A, D235K
light: not shown
notes: copies: 2 + 2
relative mFcγRIII-binding activity (mIgG1 = 1) [12]: 0.01 fold
binding result [10]: no binding

B13: H237-MB477/MRAL-k0 (antibody, mouse IgG1, kappa)
heavy: B1 heavy with D230P, P231N, S263A
light: not shown
notes: as for B9
Kd (mouse FcγRIII [4]): 94 nM
relative mFcγRIII-binding activity (mIgG1 = 1) (mouse FcγRIII [4]): 3 fold
Kd (mouse FcγRII [11]): 1.07 nM
relative mFcγRII-binding activity (mIgG1 = 1) (mouse FcγRII [11]): 196 fold

B14: H237-MB677/MRAL-k0 (antibody)
heavy: B1 heavy with E229Q, D230P, P231N, D235K
light: not shown
notes: copies: 2 + 2
relative mFcγRIII-binding activity (mIgG1 = 1) [12]: 0.03 fold
binding result [10]: no binding

B15: F616 (antibody, human IgG1, kappa)
heavy: QVQLQESGPGLVKPSETLSLTCAVSGHSISHDHAWSWVRQPPGEGLEWIGFISYSGITNYNPSLQGRVTISRDNSKNTLYLQMNSLRAEDTAVYYCARSLARTTAMDYWGEGTLVTVSSASTKGPSVFPLAPSSKSTSGGTAALGCLVKDYFPEPVTVSWNSGALTSGVHTFPAVLQSSGLYSLSSVVTVPSSSLGTQTYICNVNHKPSNTKVDKKVEPKSCDKTHTCPPCPAPELLGGPDVFLFPPKPKDTLMISRTPEVTCVVVDVSHEDPEVKFNWYVDGVEVHNAKTKPREEQYNSTYRVVSVLTVLHQDWLNGKEYKCKVSNDAYPAPIEKTISKAKGQPREPQVYTLPPSRDELTKNQVSLTCLVKGFYPSDIAVEWESNGQPENNYKTTPPVLDSDGSFFLYSKLTVDKSRWQQGNVFSCSVMHEALHNHYTQKSLSLSPGK
light: not shown
notes: human IgG1 constant region variant; copies: 2 + 2
relative mFcγRIII-binding activity (mIgG1 = 1) (mouse FcγRIII [13]): 50.1 fold
relative mFcγRII-binding activity (mIgG1 = 1) (mouse FcγRII [14]): 186 fold

B17: FS131 (antibody, human IgG1, kappa)
heavy: B15 heavy with L236W, D328K
light: not shown
notes: as for B15
relative mFcγRIII-binding activity (mIgG1 = 1) (mouse FcγRIII [13]): 33.2 fold
relative mFcγRII-binding activity (mIgG1 = 1) (mouse FcγRII [14]): 144 fold

The remaining lines, values ahead:

binding result [8]: no binding
relative mFcγRII-binding activity (mIgG1 = 1) [9]: 0.23 fold
B6: H237-MB881/MRAL-k0 (antibody, mouse IgG1, kappa)
heavy: B1 heavy with D230V, P231N, V233E, D235L
light: not shown
notes: copies: 2 + 2

binding result [7]: no binding
binding result [10]: no binding
B8: H237-MB590/MRAL-k0 (antibody, mouse IgG1, kappa)
heavy: B1 heavy with E229T, D230V, E234D, D235S, S263M
light: not shown
notes: copies: 2 + 2

binding result [8]: no binding
relative mFcγRII-binding activity (mIgG1 = 1) [9]: 0.34 fold
B10: H237-MB880/MRAL-k0 (antibody, mouse IgG1, kappa)
heavy: B1 heavy with D230V, P231A, V233E, D235L
light: not shown
notes: copies: 2 + 2

binding result [8]: no binding
relative mFcγRII-binding activity (mIgG1 = 1) [9]: 0.3 fold
B12: H237-MB879/MRAL-k0 (antibody, mouse IgG1, kappa)
heavy: B1 heavy with E229T, D230P, P231N, V233E, D235L
light: not shown
notes: copies: 2 + 2

relative mFcγRIII-binding activity (mIgG1 = 1) (mouse FcγRIII [13]): 86.5 fold
relative mFcγRII-binding activity (mIgG1 = 1) (mouse FcγRII [14]): 162 fold
B16: FS133 (antibody, human IgG1, kappa)
heavy: B15 heavy with H270D, D328K, Y330W
light: not shown
notes: as for B15

relative mFcγRIII-binding activity (mIgG1 = 1) (mouse FcγRIII [13]): 34.4 fold
relative mFcγRII-binding activity (mIgG1 = 1) (mouse FcγRII [14]): 138 fold
B18: FS135 (antibody, human IgG1, kappa)
heavy: B15 heavy with S269A, D328K
light: not shown
notes: as for B15

relative mFcγRIII-binding activity (mIgG1 = 1) (mouse FcγRIII [13]): 41.8 fold
relative mFcγRII-binding activity (mIgG1 = 1) (mouse FcγRII [14]): 96.7 fold
B19: FS132 (antibody, human IgG1, kappa)
heavy: B15 heavy with D328K, A329D
light: not shown
notes: as for B15
